The results in this text go back to patent US20190022243A1.

This test has as its target human AXL (full length) (human (Homo sapiens)) (UniProt P30530). In words: flow cytometry, A431 cells pre-incubated with 10 µg/mL Gas6 (competitor: Gas6). For orientation: In flow cytometry, cells or beads pass a laser one at a time.

B1: IgG1-YW327.6S2 (antibody, from another filing, V domains shown)
VH: EVQLVESGGGLVQPGGSLRLSCAASGFSLSGSWIHWVRQAPGKGLEWVGWINPYRGYAYYADSVKGRFTISADTSKNTAYLQMNSLRAEDTAVYYCAREYSGWGGSSVGYAMDYWGQGTLVTVSS
VL: DIQMTQSPSSLSASVGDRVTITCRASQDVSTAVAWYQQKPGKAPKLLIYSASFLYSGVPSRFSGSGSGTDFTLTISSLQPEDFATYYCQQSYTTPPTFGQGTKVEIK
Regarding B1, the fold higher EC50 after Gas6 pre-incubation than without Gas6 is 21 fold and the maximal binding in the presence of Gas6 (% of binding without Gas6) was 19%.
